The values below come from patent US20190241657A1 (Sanofi, published 2019).

The target in assay [1] is T1, CD123 on THP-1 target cells (UniProt P26951 19-378). Put plainly: cell-based or functional assay.
In assay [2] the target is T1, CD123 on THP-1 target cells. In words: cell-based or functional assay. The source holds these as a separate data set.
For assay [3] the target is unchanged. Put plainly: cell-based or functional assay. This is another data set of the same source.
Assay [4] shares this target. Put plainly: cell-based or functional assay. This is another data set of the same source.
In assay [5] the target is T2, mature human CD123 His-II tagged Fc-fusion protein (human).
T2 construct: also called huCD123; CD123-Fc-His
T2 sequence (chain, as listed by the source limits assumed): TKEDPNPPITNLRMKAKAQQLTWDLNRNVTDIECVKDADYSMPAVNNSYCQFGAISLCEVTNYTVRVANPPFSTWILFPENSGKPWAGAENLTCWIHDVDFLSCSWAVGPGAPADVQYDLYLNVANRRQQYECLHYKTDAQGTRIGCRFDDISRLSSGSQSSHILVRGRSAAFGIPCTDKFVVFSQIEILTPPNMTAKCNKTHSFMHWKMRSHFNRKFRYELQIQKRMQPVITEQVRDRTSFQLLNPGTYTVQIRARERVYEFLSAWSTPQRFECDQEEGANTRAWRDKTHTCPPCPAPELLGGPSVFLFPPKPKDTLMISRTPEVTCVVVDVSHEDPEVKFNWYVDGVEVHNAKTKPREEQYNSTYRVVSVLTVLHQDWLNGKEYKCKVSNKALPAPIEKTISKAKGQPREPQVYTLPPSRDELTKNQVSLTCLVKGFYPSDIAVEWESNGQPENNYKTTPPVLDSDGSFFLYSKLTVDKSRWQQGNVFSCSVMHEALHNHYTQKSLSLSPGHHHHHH
Put plainly: SPR (Biacore), CD123-Fc-His captured with His capture kit, CODV as analyte, 1:1 Langmuir with mass transfer. The method, then: (§1) Binding affinities of CODV antibody-like binding proteins to human CD3ε/δ and human CD123 were measured by surface plasmon resonance (SPR) using a Biacore3000 or Biacore T200 instrument (GE Healthcare) with HBS-EP (GE Healthcare) as assay buffer). Capture of CD3ε/δ-Fc or CD123-Fc-His fusion proteins was achieved using the His capture kit (GE Healthcare). The capture antibody was coupled to CM5 chips (GE Healthcare) to approx. 12.000 RU using the amine coupling kit (BR-100-50, GE Healthcare). The CD3εδ-Fc or CD123-Fc-His fusion proteins were captured at 10 μl/min to yield Rmax values of 30 RU. Binding kinetics with the CODV antibody-like binding proteins was measured at 30 μl/min Twofold dilutions of CODV antibody-like binding proteins from 3 to 200 nM in assay buffer were used. All Fab concentrations were run in duplicate together with duplicate buffer blanks for double referencing. Regeneration of the capture surface was performed with a 1 min injection of 10 mM Glycine pH1.5 at 30 μl/min. For data analysis the BIAevaluation software (GE Healthcare) was used. Data were fit globally using a 1:1 Langmuir model with mass transfer.
A general note: SPR reads the build-up and loss of mass on a sensor chip optically.

Assay [6] deals with T2, mature human CD123 His-II tagged …. Put plainly: Biacore. As to the method:
Cytotoxic effects of the CODV-Fab-TL1-RF “hz20G6×hz7G3”, CODV-Fab-OL1 “hz20G6×hz7G3” and the single chain DART MGD006 were assessed. Affinities to the CD3ε/δ-complex and CD123 of each bispecific construct were measured by Biacore. Furthermore, a cytotoxic assay was performed as described in 2.8 (table 3).
as §1, with “Data were fit globally using a 1:1 Langmuir model with mass transfer.” left out

Assay [7] deals with T1, CD123 on THP-1 target cells. Put plainly: cell-based or functional assay. This is another data set of the same source.
Assay [8] has the same target. In words: cell-based or functional assay. This is another data set of the same source.
Assay [9] shares this target. Put plainly: cell-based or functional assay. The source holds these as a separate data set.

Broadly, the Kd is the concentration at which binding is half-saturated. High values mean lower affinity, low ones higher affinity. The koff is a measure of how fast the partners let go of each other. A word on the kon: it is the second-order rate constant of association.

Numbering of substitutions follows the chain as printed.

T1 sequence (P26951 19-378): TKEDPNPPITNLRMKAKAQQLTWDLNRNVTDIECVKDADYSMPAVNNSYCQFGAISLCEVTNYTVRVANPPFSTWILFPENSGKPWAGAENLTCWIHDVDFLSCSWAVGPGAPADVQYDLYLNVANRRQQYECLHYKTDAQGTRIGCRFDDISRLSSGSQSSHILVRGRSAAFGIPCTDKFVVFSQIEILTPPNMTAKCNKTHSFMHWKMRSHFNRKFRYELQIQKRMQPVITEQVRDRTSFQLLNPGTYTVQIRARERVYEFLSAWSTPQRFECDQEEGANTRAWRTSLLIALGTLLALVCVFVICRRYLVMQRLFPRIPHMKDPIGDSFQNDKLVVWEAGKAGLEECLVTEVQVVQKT

B1: CODV-Fab-TL1-Knob-RFxhole "hz20G6xhz7G3" antibody-like binding protein (bispecific antibody, human IgG1, kappa, L234A L235A)
light: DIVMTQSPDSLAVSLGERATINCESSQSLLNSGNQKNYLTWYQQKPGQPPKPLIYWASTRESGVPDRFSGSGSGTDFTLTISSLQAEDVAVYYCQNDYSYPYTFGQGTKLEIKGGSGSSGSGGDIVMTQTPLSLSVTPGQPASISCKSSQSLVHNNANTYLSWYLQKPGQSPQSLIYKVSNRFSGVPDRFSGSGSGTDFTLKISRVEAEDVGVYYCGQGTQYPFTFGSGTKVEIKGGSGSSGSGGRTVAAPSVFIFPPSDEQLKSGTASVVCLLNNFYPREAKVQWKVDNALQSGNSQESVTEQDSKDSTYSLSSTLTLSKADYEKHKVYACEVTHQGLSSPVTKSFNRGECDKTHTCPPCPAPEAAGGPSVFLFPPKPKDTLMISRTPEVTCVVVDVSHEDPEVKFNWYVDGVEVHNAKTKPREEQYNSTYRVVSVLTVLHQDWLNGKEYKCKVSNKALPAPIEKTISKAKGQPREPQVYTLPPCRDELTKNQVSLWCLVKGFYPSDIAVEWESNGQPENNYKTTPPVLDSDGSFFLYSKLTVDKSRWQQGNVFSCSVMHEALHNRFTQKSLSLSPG
heavy: QVQLVESGGGVVQPGRSLRLSCAASGFTFTKAWMHWVRQAPGKQLEWVAQIKDKSNSYATYYADSVKGRFTISRDDSKNTLYLQMNSLRAEDTAVYYCRGVYYALSPFDYWGQGTLVTVSSEVQLVQSGAEVKKPGESLKISCKGSGYSFTDYYMKWARQMPGKGLEWMGDIIPSSGATFYNQKFKGQVTISADKSISTTYLQWSSLKASDTAMYYCARSHLLRASWFAYWGQGTMVTVSSASTKGPSVFPLAPSSKSTSGGTAALGCLVKDYFPEPVTVSWNSGALTSGVHTFPAVLQSSGLYSLSSVVTVPSSSLGTQTYICNVNHKPSNTKVDKKVEPKSCDKTHTCPPCPAPEAAGGPSVFLFPPKPKDTLMISRTPEVTCVVVDVSHEDPEVKFNWYVDGVEVHNAKTKPREEQYNSTYRVVSVLTVLHQDWLNGKEYKCKVSNKALPAPIEKTISKAKGQPREPQVCTLPPSRDELTKNQVSLSCAVKGFYPSDIAVEWESNGQPENNYKTTPPVLDSDGSFFLVSKLTVDKSRWQQGNVFSCSVMHEALHNHYTQKSLSLSPG
notes: CODV-Fab-TL format; IgG1 backbone with LALA mutation
As to B1, the “flow cytometry based cytotoxic assay, EC50 (pM) GMean” value (“flow cytometry based cytotoxic assay” below) in [1] was determined as 0.8 pM. In addition, in assay [2], the “T-cell Activation with THP-1 target cells, CD4+/CD69+ EC50 (pM) GMean” value (from here on “T-cell Activation … CD4+/CD69+ EC50 (pM) GMean”) worked out at 0.7 pM and the “T-cell Activation with THP-1 target cells, CD8+/CD69+ EC50 (pM) GMean” value (“T-cell Activation … CD8+/CD69+ EC50 (pM) GMean” for short) amounted to 1.2 pM. Also, in assay [3], the “Activity - CD4+/CD69+ % Activation C = 100 nM Mean (with THP-1 target cells)” value was determined as 63%. The “Activity - CD8+/CD69+ % Activation C = 100 nM Mean (with THP-1 target cells)” value in assay [4] turned out to be 68%. In assay [5], this molecule registered a Kd of 0.215 nM, an off-rate (koff) of 0.000102 s⁻¹ and an association rate constant (kon) of 474000 M⁻¹ s⁻¹.

B2: CODV-Fab-TL1-RF "hz20G6xhz7G3" antibody-like binding protein (bispecific antibody, human IgG1, kappa, L234A L235A)
light: DIVMTQSPDSLAVSLGERATINCESSQSLLNSGNQKNYLTWYQQKPGQPPKPLIYWASTRESGVPDRFSGSGSGTDFTLTISSLQAEDVAVYYCQNDYSYPYTFGQGTKLEIKGGSGSSGSGGDIVMTQTPLSLSVTPGQPASISCKSSQSLVHNNANTYLSWYLQKPGQSPQSLIYKVSNRFSGVPDRFSGSGSGTDFTLKISRVEAEDVGVYYCGQGTQYPFTFGSGTKVEIKGGSGSSGSGGRTVAAPSVFIFPPSDEQLKSGTASVVCLLNNFYPREAKVQWKVDNALQSGNSQESVTEQDSKDSTYSLSSTLTLSKADYEKHKVYACEVTHQGLSSPVTKSFNRGECDKTHTCPPCPAPEAAGGPSVFLFPPKPKDTLMISRTPEVTCVVVDVSHEDPEVKFNWYVDGVEVHNAKTKPREEQYNSTYRVVSVLTVLHQDWLNGKEYKCKVSNKALPAPIEKTISKAKGQPREPQVYTLPPSRDELTKNQVSLTCLVKGFYPSDIAVEWESNGQPENNYKTTPPVLDSDGSFFLYSKLTVDKSRWQQGNVFSCSVMHEALHNRFTQKSLSLSPG
heavy: not shown
notes: Anti-CD3 (hz20G6) x anti-CD123 (hz7G3) in the CODV-Fab-TL format; IgG1 backbone with LALA mutation; also called hz20G6xhz7G3 CODV-Fab-TL1-RF; PB05126
The molecule B2 had a Kd in [6] of 0.2 nM. Further, in [7], the “T cell activation with THP-1 target cells, CD4+ T cells (% CD69+ cells) EC50” value was found to be 3.2 pM and the “T cell activation with THP-1 target cells, CD8+ T cells (% CD69+ cells) EC50” value came to 9.9 pM. In [8], the “Cytotoxic assay (THP cells) EC50” value is 1 pM. Besides, the “Jurkat-NFAT-Luc reporter cell activation with THP1 cells, EC50” value in assay [9] amounted to 444 pM. For the same molecule, the “flow cytometry based cytotoxic assay” value in assay [1] was determined as 0.8 pM. Further, in assay [2], the “T-cell Activation … CD4+/CD69+ EC50 (pM) GMean” value came to 0.5 pM and the “T-cell Activation … CD8+/CD69+ EC50 (pM) GMean” value worked out at 0.7 pM. For the same molecule, the “Activity - CD4+/CD69+ % Activation C = 100 nM Mean (with THP-1 target cells)” value in [3] is 75%. In addition, in assay [4], the “Activity - CD8+/CD69+ % Activation C = 100 nM Mean (with THP-1 target cells)” value worked out at 78%. In [5], this molecule came in with a dissociation constant (Kd) of 0.339 nM, an off-rate (koff) of 0.000104 s⁻¹ and a kon of 308000 M⁻¹ s⁻¹.

B3: CODV-Fab-TL1-Knobxhole-RF "hz20G6xhz7G3" antibody-like binding protein (bispecific antibody, human IgG1, kappa, L234A L235A)
light: not shown
heavy: B1 heavy with H559R, Y560F
notes: as for B1
Consider B3, for which the “flow cytometry based cytotoxic assay” value in assay [1] is 1.1 pM. In addition, in assay [2], the “T-cell Activation … CD4+/CD69+ EC50 (pM) GMean” value came out at 0.9 pM and the “T-cell Activation … CD8+/CD69+ EC50 (pM) GMean” value turned out to be 1.6 pM. Besides, the “Activity - CD4+/CD69+ % Activation C = 100 nM Mean (with THP-1 target cells)” value in assay [3] came to 64%. The “Activity - CD8+/CD69+ % Activation C = 100 nM Mean (with THP-1 target cells)” value in assay [4] was found to be 70%. In [5], binding was put at a Kd of 0.193 nM, the dissociation rate constant (koff) came out at 8.42e-05 s⁻¹ and the kon was determined as 437000 M⁻¹ s⁻¹.

B4: Single chain antibody DART format MGD006 (CD123xCD3 bi-specific diabody) (bispecific antibody)
chain 1: QAVVTQEPSLTVSPGGTVTLTCRSSTGAVTTSNYANWVQQKPGQAPRGLIGGTNKRAPWTPARFSGSLLGGKAALTITGAQAEDEADYYCALWYSNLWVFGGGTKLTVLGGGGSGGGGEVQLVQSGAELKKPGASVKVSCKASGYTFTDYYMKWVRQAPGQGLEWIGDIIPSNGATFYNQKFKGRVTITVDKSTSTAYMELSSLRSEDTAVYYCARSHLLRASWFAYWGQGTLVTVSSGGCGGGEVAALEKEVAALEKEVAALEKEVAALEK
chain 2: DFVMTQSPDSLAVSLGERVTMSCKSSQSLLNSGNQKNYLTWYQQKPGQPPKLLIYWASTRESGVPDRFSGSGSGTDFTLTISSLQAEDVAVYYCQNDYSYPYTFGQGTKLEIKGGGSGGGGEVQLVESGGGLVQPGGSLRLSCAASGFTFSTYAMNWVRQAPGKGLEWVGRIRSKYNNYATYYADSVKDRFTISRDDSKNSLYLQMNSLKTEDTAVYYCVRHGNFGNSYVSWFAYWGQGTLVTVSSGGCGGGKVAALKEKVAALKEKVAALKEKVAALKE
notes: The two chains are covalently bonded to one another by a disulfide bond; also called single chain DART; CD123xCD3 bispecific DART
In turn, B4 returned a dissociation constant (Kd) in [6] of 0.2 nM. Besides, in assay [7], the “T cell activation with THP-1 target cells, CD4+ T cells (% CD69+ cells) EC50” value was 1 pM and the “T cell activation with THP-1 target cells, CD8+ T cells (% CD69+ cells) EC50” value came out at 3.5 pM. For the same molecule, the “Cytotoxic assay (THP cells) EC50” value in [8] was determined as 0.3 pM. The “Jurkat-NFAT-Luc reporter cell activation with THP1 cells, EC50” value in assay [9] turned out to be 370 pM.
